Assay [1] has as its target HIV-1 Gag polyprotein in the immature Gag lattice of purified virus particles (HIV-1). The assay is described as follows: cryo-EM structure.
Assay [2] has the same target. Nature of the assay: cryo-EM structure. This is another data set of the same source.

Results on one substance are retold here after article doi:10.1101/2020.10.01.322081.

As a reminder, the stoichiometry N is the number of molecules, sites or subunits per partner or assembly.

Values joined by “and” are separate entries in the source; they are usually repeats but may differ in a detail not shown here. Equal entries are not always repeated. Where two headings read alike, the source gives them in different places.

With “HIV-1 Gag polyprotein in the immature Gag lattice of purified virus particles (natural protein)”, the stoichiometry N in assay [1] is 2; in assay [2] it was 3 and 5.
